The values that follow come from article PMC7698151, “Evidence for Pentapeptide-Dependent and Independent CheB Methylesterases” (International Journal of Molecular Sciences, 2020).

Read-outs that look alike come from different tables or passages of the source.

The target of assay [1] is Tar pentapeptide (Escherichia coli). As to conditions: cited from earlier work.
Assay [2] deals with McpB (Aer2) pentapeptide (Pseudomonas aeruginosa). The following applies: cited from earlier work.
The target of assay [3] is Tar methylation site (Escherichia coli) (UniProt P07017). The following applies: cited from earlier work.
Assay [4] addresses Tar pentapeptide (Escherichia coli). As to conditions: cited from earlier work. The source holds these as a separate data set.
Assay [5] has as its target P. aeruginosa PAO1 CheB2 D55E mutant (Pseudomonas aeruginosa PAO1) (UniProt Q9I6V9). The experiment in a line: ITC. For orientation: Isothermal titration calorimetry measures the heat released or taken up as one component is titrated into another.

Sequence of CheR (P07364 whole entry): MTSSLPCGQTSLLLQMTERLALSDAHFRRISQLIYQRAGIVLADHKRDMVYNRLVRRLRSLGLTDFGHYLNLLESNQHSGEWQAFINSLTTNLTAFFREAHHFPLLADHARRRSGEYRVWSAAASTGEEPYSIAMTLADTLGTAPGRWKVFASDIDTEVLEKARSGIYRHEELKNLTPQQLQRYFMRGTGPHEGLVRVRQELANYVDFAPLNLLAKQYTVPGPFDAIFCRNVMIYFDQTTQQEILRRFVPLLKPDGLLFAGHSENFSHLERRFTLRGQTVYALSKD
Sequence of CheB (P07330 whole entry): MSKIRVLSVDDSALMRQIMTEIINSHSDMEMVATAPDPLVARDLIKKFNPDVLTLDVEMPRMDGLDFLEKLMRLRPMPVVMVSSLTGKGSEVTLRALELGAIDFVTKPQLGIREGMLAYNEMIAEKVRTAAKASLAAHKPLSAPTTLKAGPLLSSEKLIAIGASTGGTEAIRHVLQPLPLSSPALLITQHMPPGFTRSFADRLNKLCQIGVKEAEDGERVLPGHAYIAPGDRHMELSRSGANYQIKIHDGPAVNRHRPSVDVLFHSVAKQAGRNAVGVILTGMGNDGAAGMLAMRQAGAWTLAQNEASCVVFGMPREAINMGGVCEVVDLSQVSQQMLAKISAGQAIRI

Take CheB (from UniProt P07330): the Kd (usually the concentration at which binding is half-saturated) in assay [1] is 145 µM. CheR2 (from UniProt Q9I6V7): the Kd in assay [2] is 0.52 µM. Consider CheR (from UniProt P07364), for which the Kd is 150 µM in assay [3] and 2 µM in assay [4]. In turn, “[…] pentapeptide of the McpB (Aer2) chemoreceptor” came in with a Kd in assay [5] of 56 µM.
